Experimental findings from publication PMC7261414, “A complex comprising C15ORF41 and Codanin-1: the products of two genes mutated in congenital dyserythropoietic anaemia type I (CDA-I)” (Biochemical Journal, 2020) are described below.

The target of the assay is T1, Codanin-1-C (fragment of Codanin-1, amino acids P800-S1227) (human, UniProt Q8IWY9 800-1227).
T1 construct: Codanin-1, amino acids P800-S1227; Plasmid pET28a 6His z-basic TEV CDAN1^P800-S1227; the text speaks only of the hexahistidine tag being cleaved with TEV; that z-basic goes with it follows from the order in the plasmid's name; also called CDAN1^P800-S1227; source: E. coli, purified (Ni2+-NTA agarose, tag cleaved with His-TEV protease); not shown: His6, N-terminal, cleaved; z-basic, N-terminal, …
T1 sequence (looked up): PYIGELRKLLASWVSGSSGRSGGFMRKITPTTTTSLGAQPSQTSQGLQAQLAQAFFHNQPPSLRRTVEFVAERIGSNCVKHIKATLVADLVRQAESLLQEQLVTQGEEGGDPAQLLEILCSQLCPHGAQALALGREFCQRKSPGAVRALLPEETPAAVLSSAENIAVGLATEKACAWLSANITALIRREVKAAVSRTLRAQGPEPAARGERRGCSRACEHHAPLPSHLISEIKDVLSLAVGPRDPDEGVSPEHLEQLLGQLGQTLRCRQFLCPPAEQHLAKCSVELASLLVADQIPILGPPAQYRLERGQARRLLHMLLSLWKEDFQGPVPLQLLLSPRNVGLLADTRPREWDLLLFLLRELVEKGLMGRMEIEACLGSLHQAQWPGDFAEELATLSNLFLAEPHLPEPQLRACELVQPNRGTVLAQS
The assay is described as follows: pull-down + SEC; purified His6-C15ORF41 re-bound to Ni2+-NTA agarose, excess of purified Codanin-1-C passed over, eluted with 400 mM imidazole, Superdex 200 16/60 in 50 mM Tris pH 7.5, 500 mM NaCl, 5% glycerol, 0.5 mM TCEP. The note with it: both partners purified.

B1: His6-C15ORF41 bearing the solubilising mutations V18M, C223S and W237R (natural protein, human, UniProt Q9Y2V0 1-281, looked up)
chain: MILTKAQYDEIAQCLVSMPPTRQSLRKLKQRFPSQSQATLLSIFSQEYQKHIKRTHAKHHTSEAIESYYQRYLNGVVKNGAAPVLLDLANEVDYAPSLMARLILERFLQEHEETPPSKSIINSMLRDPSQIPDGVLANQVYQCIVNDCCYGPLVDCIKHAIGHEHEVLLRDLLLEKNLSFLDEDQLRAKGYDKTPDFILQVPVAVEGHIIHWIESKASFGDESSHHAYLHDQFWSYRNRFGPGLVIYWYGFIQELDCNRERGILLKACFPTNIVTLCHSIA
notes: C15ORF41 (CDIN1) with the extra mutations V18M, C223S and W237R; Plasmid pNIC28 Bsa4 6His Tev C15ORF41^(V18M C223S W237R), a gift from J. Newman (SGC Oxford); preparations held bacterial ArnA as a contaminant; also called C15ORF41^(V18M C223S W237R); source: E. coli, purified (Ni2+-NTA agarose, dialysis); not shown: His6, N-terminal, kept
Take B1: the binding result is given as “binds”.
